Target: His-tagged human CRMP-2 (residues 1-490) (human) (UniProt Q16555)
Assay: SPR

Recombinant human calmodulin (from UniProt P0DP23 1-149) (natural protein)
Kd: 75 µM

Source: PMC4428678
